Assay results: publication PMC11744834, “Allelic variation in an expansin, MdEXP-A1, contributes to flesh firmness at harvest in apples”

T1: MdNAC1 (Malus domestica? (apple), UniProt D9ZJ87 1-280)
T1 sequence: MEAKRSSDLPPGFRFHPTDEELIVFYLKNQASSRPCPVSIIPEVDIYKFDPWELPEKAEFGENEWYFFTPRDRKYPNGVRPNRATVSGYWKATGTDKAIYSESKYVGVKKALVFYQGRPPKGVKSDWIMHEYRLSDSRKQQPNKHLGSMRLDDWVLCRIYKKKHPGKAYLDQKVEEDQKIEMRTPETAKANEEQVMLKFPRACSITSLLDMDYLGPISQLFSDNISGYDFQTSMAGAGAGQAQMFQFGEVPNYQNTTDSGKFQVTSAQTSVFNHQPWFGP


Target: T1, MdNAC1
Assay: EMSA; Chemiluminescent EMSA Kit (GS009, Beyotime); cold competitor 50x; buffer, salt, pH and temperature not stated
Settings: protein: recombinant; tags: GST (pGEX-6p-1); chain copies: 2; label: biotin; blunt

| Binder | binding result |
| --- | --- |
| MdEXP-A1-P2 binding probe (dsDNA) DNA 1: TAACAACAAAATGTGCCTAACGTATACATGCAAAATAATTTACCT DNA 2: AGGTAAATTATTTTGCATGTATACGTTAGGCACATTTTGTTGTTA | binds |
| MdEXP-A1-P1 binding probe (dsDNA) DNA 1: TACATGCAAAATAATTTACCTACGTAATAAATAATAAATATTGTT DNA 2: AACAATATTTATTATTTATTACGTAGGTAAATTATTTTGCATGTA | binds |
